Data: article PMC4976313, “ZCF32, a fungus specific Zn(II)2 Cys6 transcription factor, is a repressor of the biofilm development in the human pathogen Candida albicans”

T1: Zcf32 ZFN-MBP (Candida albicans, UniProt Q5ANG4 1-116)
T1 sequence: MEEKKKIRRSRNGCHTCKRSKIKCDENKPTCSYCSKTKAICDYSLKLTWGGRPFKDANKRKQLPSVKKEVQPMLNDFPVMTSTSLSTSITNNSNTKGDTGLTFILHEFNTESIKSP


Molecular target: T1, Zcf32 ZFN-MBP
Experiment: EMSA; EMSA: 1X HEPES buffer (20 mM HEPES pH 7.8, 150 mM KCl, 0.1% BSA, 10% glycerol), on ice 30 min, 6% native PAGE
Details: protein: recombinant; tags: MBP (pMAL-c2x); chain copies: 2; label: 32P 5' end; blunt

| Binder | binding result |
| --- | --- |
| O1 (dsDNA) DNA 1: TACCCGATATAGCCGATG DNA 2: CATCGGCTATATCGGGTA | binds |
| O2 (dsDNA) DNA 1: CCGATATAGCCGATGCAT DNA 2: ATGCATCGGCTATATCGG | binds |
